According to article PMC11190312:

Tests used:
[1] = biological target: SARS-CoV-2 N protein expressed in bacteria (N-Bact) (SARS-CoV-2) (UniProt P0DTC9); experiment: SPR; single cycle kinetics, […]; global fit to 1:1 Langmuir model; […]
[2] = biological target: SARS-CoV-2 N protein secreted by mammalian Expi293 cells (N-Expi) (SARS-CoV-2) (UniProt P0DTC9); experiment: as above

Recombinant human MASP-2 S618A, full-length, stabilized in proenzyme form
Kd [1]: 12.3 nM
koff [1]: 0.00015 s⁻¹
kon [1]: 13900 M⁻¹ s⁻¹
Kd [2]: 13.7 nM
koff [2]: 0.000172 s⁻¹
kon [2]: 14400 M⁻¹ s⁻¹
